# Columns and labels:
# in vivo [1] = test: in vivo; parameters: species or system mice; details: mouse, iv, total radioactivity
# Description: (§1) At the day of biodistribution mice were injected in the tail vein with ~20 kBq of ^225Accrown-αMSH (range: 10.8-31.6 kBq). […] Blood was collected by cardiac puncture and a full biodistribution performed. Organs were cleaned from blood, weighed and the activity determined using a calibrated gamma counter (Packard Cobra II Auto-gamma counter, Perkin Elmer, Waltham, MA, USA) using three energy windows: 60-120 keV (window A), 180-260 keV (window B), and 400-480 keV (window C). Counting was performed after 6 hours post-sacrifice to ensure equilibrium of the ^225Ac decay chain. Counts were decay corrected from the time of sacrifice and total organ weights were used for the calculation of injected dose per gram of tissue (% ID/g). No differences were noted between the data calculated by three different windows; therefore, the biodistributions are reported using the data acquired using window A. A similar study to Example 5.1 was conducted using ^213Bi instead of ^225Ac.
# [2] = test system: mice bearing B16F10 tumors; test: in vivo; details: mouse
# Description: as §1
# in vivo [3] = test: in vivo; parameters: species or system mice; details: mouse, iv, total radioactivity; remark: listed apart in the source
# Description: as §1, with “A. The biological distribution of ^225Ac-crown-TATE was examined by the inventors following” for “A. A”, “similar protocols as described above for” for “similar study to”, “Example 5.1.” for “Example 5.1 was conducted using ^213Bi instead of ^225Ac.”
smiles,measurement,setting,value
"CCCC[C@H](NC(=O)CN1CCC(NC(=O)CN2CCOCCN(CC(=O)O)CCN(CC(=O)O)CCOCCN(CC(=O)O)CC2)CC1)C(=O)N[C@H]1CC(=O)NCCCC[C@@H](C(N)=O)NC(=O)[C@H](Cc2c[nH]c3ccccc23)NC(=O)[C@H](CCCNC(=N)N)NC(=O)[C@@H](Cc2ccccc2)NC(=O)[C@H](Cc2c[nH]cn2)NC1=O [^213Bi-crown-αMSH, metal not drawn]",tissue uptake at 1 h,in vivo [1]; Biodistribution: Bladder,5.48 %ID/g
same,tissue uptake at 1 h,in vivo [1]; Biodistribution: Blood,0.5 %ID/g
same,tissue uptake at 1 h,in vivo [1]; Biodistribution: Bone,0.41 %ID/g
same,excreta dose per gram or mL at 1 h,in vivo [1]; Biodistribution: Feces,0.23 %ID/g
same,tissue uptake at 1 h,in vivo [1]; Biodistribution: Heart,0.09 %ID/g
same,tissue uptake at 1 h,in vivo [1]; Biodistribution: Kidneys,6.02 %ID/g
same,tissue uptake at 1 h,in vivo [1]; Biodistribution: Lg Intestine,0.56 %ID/g
same,tissue uptake at 1 h,in vivo [1]; Biodistribution: Liver,1.09 %ID/g
same,tissue uptake at 1 h,in vivo [1]; Biodistribution: Lungs,0.45 %ID/g
same,tissue uptake at 1 h,in vivo [1]; Biodistribution: Muscle,0.08 %ID/g
same,tissue uptake at 1 h,in vivo [1]; Biodistribution: Pancreas,0.15 %ID/g
same,tissue uptake at 1 h,in vivo [1]; Biodistribution: Sm Intestine,0.34 %ID/g
same,tissue uptake at 1 h,in vivo [1]; Biodistribution: Spleen,0.36 %ID/g
same,tissue uptake at 1 h,in vivo [1]; Biodistribution: Stomach,0.67 %ID/g
same,tissue uptake at 1 h,in vivo [1]; Biodistribution: Tail,2.56 %ID/g
same,tissue uptake at 1 h,in vivo [1]; Biodistribution: Thyroids,0.74 %ID/g
same,tissue uptake at 1 h,in vivo [1]; Biodistribution: Tumour,5.9 %ID/g
same,excreta dose per gram or mL at 1 h,in vivo [1]; Biodistribution: Urine,93.2 %ID/g
same,T/Blood (ratio tumor versus blood),[2],12.15
same,T/Bone (ratio tumor versus bone),[2],23.41
same,T/Kidney (ratio tumor versus kidney),[2],0.99
same,T/Liver (ratio tumor versus liver),[2],5.44
same,T/Muscle (ratio tumor versus muscle),[2],84.48
"C[C@@H](O)[C@H](NC(=O)[C@@H]1CSSC[C@H](NC(=O)[C@@H](Cc2ccccc2)NC(=O)CN2CCOCCN(CC(=O)O)CCN(CC(=O)O)CCOCCN(CC(=O)O)CC2)C(=O)N[C@@H](Cc2ccc(O)cc2)C(=O)N[C@H](Cc2c[nH]c3ccccc23)C(=O)N[C@@H](CCCCN)C(=O)N[C@@H]([C@@H](C)O)C(=O)N1)C(=O)O [^225Ac-crown-TATE, metal not drawn]",tissue uptake at 1 h,in vivo [3]; Biodistribution: Andrenals,1.34 %ID/g
same,tissue uptake at 4 h,in vivo [3]; Biodistribution: Andrenals,1.37 %ID/g
same,tissue uptake at 24 h,in vivo [3]; Biodistribution: Andrenals,1.77 %ID/g
same,tissue uptake at 72 h,in vivo [3]; Biodistribution: Andrenals,1.37 %ID/g
same,tissue uptake at 1 h,in vivo [3]; Biodistribution: Bladder,7.09 %ID/g
same,tissue uptake at 4 h,in vivo [3]; Biodistribution: Bladder,1.04 %ID/g
same,tissue uptake at 24 h,in vivo [3]; Biodistribution: Bladder,0.33 %ID/g
same,tissue uptake at 72 h,in vivo [3]; Biodistribution: Bladder,0.37 %ID/g
same,tissue uptake at 1 h,in vivo [3]; Biodistribution: Blood,0.54 %ID/g
same,tissue uptake at 4 h,in vivo [3]; Biodistribution: Blood,0.09 %ID/g
same,tissue uptake at 24 h,in vivo [3]; Biodistribution: Blood,0.03 %ID/g
same,tissue uptake at 72 h,in vivo [3]; Biodistribution: Blood,0.02 %ID/g
same,tissue uptake at 1 h,in vivo [3]; Biodistribution: Bone,0.35 %ID/g
same,tissue uptake at 4 h,in vivo [3]; Biodistribution: Bone,0.78 %ID/g
same,tissue uptake at 24 h,in vivo [3]; Biodistribution: Bone,0.38 %ID/g
same,tissue uptake at 72 h,in vivo [3]; Biodistribution: Bone,0.78 %ID/g
same,tissue uptake at 1 h,in vivo [3]; Biodistribution: Brain,0.03 %ID/g
same,tissue uptake at 4 h,in vivo [3]; Biodistribution: Brain,0.01 %ID/g
same,tissue uptake at 24 h,in vivo [3]; Biodistribution: Brain,0.01 %ID/g
same,tissue uptake at 72 h,in vivo [3]; Biodistribution: Brain,0.01 %ID/g
same,excreta dose per gram or mL at 1 h,in vivo [3]; Biodistribution: Feces,0.22 %ID/g
same,excreta dose per gram or mL at 4 h,in vivo [3]; Biodistribution: Feces,0.27 %ID/g
same,excreta dose per gram or mL at 24 h,in vivo [3]; Biodistribution: Feces,0.53 %ID/g
same,excreta dose per gram or mL at 72 h,in vivo [3]; Biodistribution: Feces,0.26 %ID/g
same,tissue uptake at 1 h,in vivo [3]; Biodistribution: Gallbladder,0.68 %ID/g
same,tissue uptake at 4 h,in vivo [3]; Biodistribution: Gallbladder,0.52 %ID/g
same,tissue uptake at 24 h,in vivo [3]; Biodistribution: Gallbladder,0.99 %ID/g
same,tissue uptake at 72 h,in vivo [3]; Biodistribution: Gallbladder,1.25 %ID/g
same,tissue uptake at 1 h,in vivo [3]; Biodistribution: Heart,0.32 %ID/g
same,tissue uptake at 4 h,in vivo [3]; Biodistribution: Heart,0.15 %ID/g
same,tissue uptake at 24 h,in vivo [3]; Biodistribution: Heart,0.18 %ID/g
same,tissue uptake at 72 h,in vivo [3]; Biodistribution: Heart,0.19 %ID/g
same,tissue uptake at 1 h,in vivo [3]; Biodistribution: Kidneys,20 %ID/g
same,tissue uptake at 4 h,in vivo [3]; Biodistribution: Kidneys,20.7 %ID/g
same,tissue uptake at 24 h,in vivo [3]; Biodistribution: Kidneys,11.5 %ID/g
same,tissue uptake at 72 h,in vivo [3]; Biodistribution: Kidneys,7.09 %ID/g
same,tissue uptake at 1 h,in vivo [3]; Biodistribution: Lg Intestine,1.55 %ID/g
same,tissue uptake at 4 h,in vivo [3]; Biodistribution: Lg Intestine,1.58 %ID/g
same,tissue uptake at 24 h,in vivo [3]; Biodistribution: Lg Intestine,1.31 %ID/g
same,tissue uptake at 72 h,in vivo [3]; Biodistribution: Lg Intestine,1.02 %ID/g
same,tissue uptake at 1 h,in vivo [3]; Biodistribution: Liver,1.38 %ID/g
same,tissue uptake at 4 h,in vivo [3]; Biodistribution: Liver,1 %ID/g
same,tissue uptake at 24 h,in vivo [3]; Biodistribution: Liver,1.77 %ID/g
same,tissue uptake at 72 h,in vivo [3]; Biodistribution: Liver,2.43 %ID/g
same,tissue uptake at 1 h,in vivo [3]; Biodistribution: Lungs,3.4 %ID/g
same,tissue uptake at 4 h,in vivo [3]; Biodistribution: Lungs,3.37 %ID/g
same,tissue uptake at 24 h,in vivo [3]; Biodistribution: Lungs,2.31 %ID/g
same,tissue uptake at 72 h,in vivo [3]; Biodistribution: Lungs,2 %ID/g
same,tissue uptake at 1 h,in vivo [3]; Biodistribution: Muscle,0.1 %ID/g
same,tissue uptake at 4 h,in vivo [3]; Biodistribution: Muscle,0.02 %ID/g
same,tissue uptake at 24 h,in vivo [3]; Biodistribution: Muscle,0.02 %ID/g
same,tissue uptake at 72 h,in vivo [3]; Biodistribution: Muscle,0.04 %ID/g
same,tissue uptake at 1 h,in vivo [3]; Biodistribution: Pancreas,4.39 %ID/g
same,tissue uptake at 4 h,in vivo [3]; Biodistribution: Pancreas,3.24 %ID/g
same,tissue uptake at 24 h,in vivo [3]; Biodistribution: Pancreas,1.22 %ID/g
same,tissue uptake at 72 h,in vivo [3]; Biodistribution: Pancreas,1.07 %ID/g
same,tissue uptake at 1 h,in vivo [3]; Biodistribution: Sm Intestine,0.88 %ID/g
same,tissue uptake at 4 h,in vivo [3]; Biodistribution: Sm Intestine,0.74 %ID/g
same,tissue uptake at 24 h,in vivo [3]; Biodistribution: Sm Intestine,0.51 %ID/g
same,tissue uptake at 72 h,in vivo [3]; Biodistribution: Sm Intestine,0.49 %ID/g
same,tissue uptake at 1 h,in vivo [3]; Biodistribution: Spleen,0.48 %ID/g
same,tissue uptake at 4 h,in vivo [3]; Biodistribution: Spleen,0.36 %ID/g
same,tissue uptake at 24 h,in vivo [3]; Biodistribution: Spleen,0.23 %ID/g
same,tissue uptake at 72 h,in vivo [3]; Biodistribution: Spleen,0.35 %ID/g
same,tissue uptake at 1 h,in vivo [3]; Biodistribution: Stomach,5.04 %ID/g
same,tissue uptake at 4 h,in vivo [3]; Biodistribution: Stomach,3.7 %ID/g
same,tissue uptake at 24 h,in vivo [3]; Biodistribution: Stomach,2.75 %ID/g
same,tissue uptake at 72 h,in vivo [3]; Biodistribution: Stomach,2.25 %ID/g
same,tissue uptake at 1 h,in vivo [3]; Biodistribution: Tail,1.56 %ID/g
same,tissue uptake at 4 h,in vivo [3]; Biodistribution: Tail,0.42 %ID/g
same,tissue uptake at 24 h,in vivo [3]; Biodistribution: Tail,0.35 %ID/g
same,tissue uptake at 72 h,in vivo [3]; Biodistribution: Tail,0.34 %ID/g
same,tissue uptake at 1 h,in vivo [3]; Biodistribution: Tumour,5.86 %ID/g
same,tissue uptake at 4 h,in vivo [3]; Biodistribution: Tumour,5.15 %ID/g
same,tissue uptake at 24 h,in vivo [3]; Biodistribution: Tumour,5.7 %ID/g
same,tissue uptake at 72 h,in vivo [3]; Biodistribution: Tumour,4.97 %ID/g
same,excreta dose per gram or mL at 1 h,in vivo [3]; Biodistribution: Urine,108 %ID/g
same,excreta dose per gram or mL at 4 h,in vivo [3]; Biodistribution: Urine,13.2 %ID/g
same,excreta dose per gram or mL at 24 h,in vivo [3]; Biodistribution: Urine,0.87 %ID/g
same,excreta dose per gram or mL at 72 h,in vivo [3]; Biodistribution: Urine,0.2 %ID/g

# — patent US20230270892A1, “CHELATOR COMPOSITIONS FOR RADIOMETALS AND METHODS OF USING SAME” (TRIUMF INC., priority 2020, published 2023)
